The target of the assay is MCL-1 (Homo sapiens, UniProt Q07820). The experiment in a line: competition fluorescence anisotropy.
Sequence of MCL-1 (Q07820 whole entry): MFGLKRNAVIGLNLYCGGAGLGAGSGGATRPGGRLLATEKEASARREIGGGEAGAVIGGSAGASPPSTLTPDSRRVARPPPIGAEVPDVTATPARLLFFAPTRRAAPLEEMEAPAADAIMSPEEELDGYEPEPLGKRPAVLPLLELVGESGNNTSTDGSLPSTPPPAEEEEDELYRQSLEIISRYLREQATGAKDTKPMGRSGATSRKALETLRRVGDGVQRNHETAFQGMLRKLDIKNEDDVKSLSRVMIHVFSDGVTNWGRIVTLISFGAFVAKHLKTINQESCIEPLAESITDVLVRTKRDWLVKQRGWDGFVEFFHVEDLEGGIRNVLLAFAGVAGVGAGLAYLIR

B1: HRK-wt 28-50 (peptide)
chain: SAAQLTAARLKALGDELHQRTMW
By IC50 is commonly meant the midpoint of a concentration-inhibition curve. High values mean a need for much substance, low ones inhibition by little substance. The molecule B1 showed an IC50 of 2.7 µM.

B2: BAD-wt BH3 (peptide)
chain: NLWAAQRYGRELRRMSDEFVDSFKK
The molecule B2 came in with an IC50 above 50 µM.
